The source of these data is article PMC8215294.

In one data set the test system is Q94AM1. The data set can be described thus: SEC; purified His-tagged TOPs treated 30 min at RT with DTTred, DTTox, GSH or GSSG, purified again and dialysed; XBridge BEH200A SEC column, 50 mM sodium phosphate, 150 mM NaCl, 0.02% NaN3, pH 7.0. (Size exclusion chromatography separates by hydrodynamic size, large species first.)
For a further data set, the target named is T1, TOP1^C548A, Q94AM1.
T1 chain: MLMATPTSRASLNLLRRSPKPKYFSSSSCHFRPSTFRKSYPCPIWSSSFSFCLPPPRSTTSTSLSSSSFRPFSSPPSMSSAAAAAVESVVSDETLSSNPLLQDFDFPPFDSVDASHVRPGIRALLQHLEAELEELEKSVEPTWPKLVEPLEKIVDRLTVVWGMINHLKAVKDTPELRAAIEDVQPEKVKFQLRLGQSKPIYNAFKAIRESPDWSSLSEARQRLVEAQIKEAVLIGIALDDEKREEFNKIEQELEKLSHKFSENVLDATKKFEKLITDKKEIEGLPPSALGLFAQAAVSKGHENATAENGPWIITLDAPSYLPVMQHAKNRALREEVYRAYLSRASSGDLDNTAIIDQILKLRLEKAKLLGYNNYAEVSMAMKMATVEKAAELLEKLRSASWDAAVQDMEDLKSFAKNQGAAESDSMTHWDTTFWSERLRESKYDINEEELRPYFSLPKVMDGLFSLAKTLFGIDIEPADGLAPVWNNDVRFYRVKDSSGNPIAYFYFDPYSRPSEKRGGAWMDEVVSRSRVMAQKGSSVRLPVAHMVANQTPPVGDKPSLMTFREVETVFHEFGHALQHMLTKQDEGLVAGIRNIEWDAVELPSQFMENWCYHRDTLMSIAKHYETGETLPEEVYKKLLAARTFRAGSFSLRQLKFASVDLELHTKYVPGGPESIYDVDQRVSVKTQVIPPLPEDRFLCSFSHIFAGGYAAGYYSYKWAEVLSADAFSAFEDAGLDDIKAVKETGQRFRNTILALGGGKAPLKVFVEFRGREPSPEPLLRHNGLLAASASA
The data set can be described thus: size-exclusion chromatography (SEC), peak area quantification. To be noted: chain shown with the change; treatment (Ctrl or GSSG) not stated for this panel; parent: est. 38; read off a plot.

Another data set deals with T2, TOP1^C42A, Q94AM1.
T2 chain: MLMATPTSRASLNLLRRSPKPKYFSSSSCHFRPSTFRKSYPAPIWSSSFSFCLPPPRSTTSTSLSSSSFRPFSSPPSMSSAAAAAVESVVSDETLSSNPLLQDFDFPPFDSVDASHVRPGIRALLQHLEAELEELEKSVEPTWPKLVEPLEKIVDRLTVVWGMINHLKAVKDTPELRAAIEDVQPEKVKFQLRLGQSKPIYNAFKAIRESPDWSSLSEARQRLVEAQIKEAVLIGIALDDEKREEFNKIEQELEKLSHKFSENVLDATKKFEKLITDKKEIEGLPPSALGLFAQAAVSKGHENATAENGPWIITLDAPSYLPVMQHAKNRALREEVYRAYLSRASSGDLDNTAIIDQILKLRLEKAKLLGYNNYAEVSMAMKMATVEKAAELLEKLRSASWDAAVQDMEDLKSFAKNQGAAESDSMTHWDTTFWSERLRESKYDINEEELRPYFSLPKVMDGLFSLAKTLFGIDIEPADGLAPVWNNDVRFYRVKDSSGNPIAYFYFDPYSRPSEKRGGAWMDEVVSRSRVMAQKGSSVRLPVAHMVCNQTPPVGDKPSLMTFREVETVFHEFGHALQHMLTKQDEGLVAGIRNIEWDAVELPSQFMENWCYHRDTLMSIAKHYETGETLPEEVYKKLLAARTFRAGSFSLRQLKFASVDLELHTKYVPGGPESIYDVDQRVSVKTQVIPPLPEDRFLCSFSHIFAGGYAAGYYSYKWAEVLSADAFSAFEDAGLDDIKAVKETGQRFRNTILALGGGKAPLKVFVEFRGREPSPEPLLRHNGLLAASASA
The description is as above. To be noted: chain shown with the change; treatment (Ctrl or GSSG) not stated for this panel; parent: est. 38; read off a plot.

For a further data set, the target named is T3, TOP1^C29A, Q94AM1.
T3 chain: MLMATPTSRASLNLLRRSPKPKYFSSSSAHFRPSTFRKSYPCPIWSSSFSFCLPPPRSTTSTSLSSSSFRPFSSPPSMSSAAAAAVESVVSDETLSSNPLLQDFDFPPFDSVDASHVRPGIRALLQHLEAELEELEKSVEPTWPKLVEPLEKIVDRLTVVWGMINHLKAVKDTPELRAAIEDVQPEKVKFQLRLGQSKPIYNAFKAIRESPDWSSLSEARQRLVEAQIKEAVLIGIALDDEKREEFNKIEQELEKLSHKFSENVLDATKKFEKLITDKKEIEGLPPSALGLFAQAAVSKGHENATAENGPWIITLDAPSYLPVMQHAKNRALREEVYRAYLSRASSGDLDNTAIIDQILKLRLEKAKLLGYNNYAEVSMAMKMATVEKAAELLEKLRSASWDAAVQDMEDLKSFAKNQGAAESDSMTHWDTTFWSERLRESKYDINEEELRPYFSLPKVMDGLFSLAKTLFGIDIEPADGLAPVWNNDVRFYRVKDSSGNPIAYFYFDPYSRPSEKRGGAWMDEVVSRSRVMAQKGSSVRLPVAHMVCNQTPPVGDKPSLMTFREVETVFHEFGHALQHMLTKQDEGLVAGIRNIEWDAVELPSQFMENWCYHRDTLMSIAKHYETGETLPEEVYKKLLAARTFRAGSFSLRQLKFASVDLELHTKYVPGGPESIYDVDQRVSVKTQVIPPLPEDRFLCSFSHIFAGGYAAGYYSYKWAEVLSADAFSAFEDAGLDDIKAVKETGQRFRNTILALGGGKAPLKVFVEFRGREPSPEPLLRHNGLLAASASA
The description is as above. Conditions: chain shown with the change; treatment (Ctrl or GSSG) not stated for this panel; parent: est. 38; read off a plot.

For the molecule “Arabidopsis thaliana thimet oligopeptidase TOP1, full-length”, in the data set on Q94AM1, the “monomer/dimer ratio (SEC peak area) after DTTred or DTTox” value is reported as “∼7/1 under both conditions”; the “monomer/dimer ratio (SEC peak area) after GSH” value is 3/1 and 2/1 post-GSH and -GSSG, respectively; the “monomer/dimer ratio (SEC peak area) after GSSG” value was 3/1 and 2/1 post-GSH and -GSSG, respectively.

B1: Arabidopsis thaliana thimet oligopeptidase TOP1, full-length, Q94AM1 C548A (protein)
chain: MLMATPTSRASLNLLRRSPKPKYFSSSSCHFRPSTFRKSYPCPIWSSSFSFCLPPPRSTTSTSLSSSSFRPFSSPPSMSSAAAAAVESVVSDETLSSNPLLQDFDFPPFDSVDASHVRPGIRALLQHLEAELEELEKSVEPTWPKLVEPLEKIVDRLTVVWGMINHLKAVKDTPELRAAIEDVQPEKVKFQLRLGQSKPIYNAFKAIRESPDWSSLSEARQRLVEAQIKEAVLIGIALDDEKREEFNKIEQELEKLSHKFSENVLDATKKFEKLITDKKEIEGLPPSALGLFAQAAVSKGHENATAENGPWIITLDAPSYLPVMQHAKNRALREEVYRAYLSRASSGDLDNTAIIDQILKLRLEKAKLLGYNNYAEVSMAMKMATVEKAAELLEKLRSASWDAAVQDMEDLKSFAKNQGAAESDSMTHWDTTFWSERLRESKYDINEEELRPYFSLPKVMDGLFSLAKTLFGIDIEPADGLAPVWNNDVRFYRVKDSSGNPIAYFYFDPYSRPSEKRGGAWMDEVVSRSRVMAQKGSSVRLPVAHMVANQTPPVGDKPSLMTFREVETVFHEFGHALQHMLTKQDEGLVAGIRNIEWDAVELPSQFMENWCYHRDTLMSIAKHYETGETLPEEVYKKLLAARTFRAGSFSLRQLKFASVDLELHTKYVPGGPESIYDVDQRVSVKTQVIPPLPEDRFLCSFSHIFAGGYAAGYYSYKWAEVLSADAFSAFEDAGLDDIKAVKETGQRFRNTILALGGGKAPLKVFVEFRGREPSPEPLLRHNGLLAASASA
On to B1, for which the other: percent dimer with TOP1^C548A, Q94AM1 came out at 18%.

B2: Arabidopsis thaliana thimet oligopeptidase TOP1, full-length, Q94AM1 C42A (protein)
chain: MLMATPTSRASLNLLRRSPKPKYFSSSSCHFRPSTFRKSYPAPIWSSSFSFCLPPPRSTTSTSLSSSSFRPFSSPPSMSSAAAAAVESVVSDETLSSNPLLQDFDFPPFDSVDASHVRPGIRALLQHLEAELEELEKSVEPTWPKLVEPLEKIVDRLTVVWGMINHLKAVKDTPELRAAIEDVQPEKVKFQLRLGQSKPIYNAFKAIRESPDWSSLSEARQRLVEAQIKEAVLIGIALDDEKREEFNKIEQELEKLSHKFSENVLDATKKFEKLITDKKEIEGLPPSALGLFAQAAVSKGHENATAENGPWIITLDAPSYLPVMQHAKNRALREEVYRAYLSRASSGDLDNTAIIDQILKLRLEKAKLLGYNNYAEVSMAMKMATVEKAAELLEKLRSASWDAAVQDMEDLKSFAKNQGAAESDSMTHWDTTFWSERLRESKYDINEEELRPYFSLPKVMDGLFSLAKTLFGIDIEPADGLAPVWNNDVRFYRVKDSSGNPIAYFYFDPYSRPSEKRGGAWMDEVVSRSRVMAQKGSSVRLPVAHMVCNQTPPVGDKPSLMTFREVETVFHEFGHALQHMLTKQDEGLVAGIRNIEWDAVELPSQFMENWCYHRDTLMSIAKHYETGETLPEEVYKKLLAARTFRAGSFSLRQLKFASVDLELHTKYVPGGPESIYDVDQRVSVKTQVIPPLPEDRFLCSFSHIFAGGYAAGYYSYKWAEVLSADAFSAFEDAGLDDIKAVKETGQRFRNTILALGGGKAPLKVFVEFRGREPSPEPLLRHNGLLAASASA
As for B2, in the data set with TOP1^C42A, Q94AM1, the other: percent dimer is 12%.

B3: Arabidopsis thaliana thimet oligopeptidase TOP1, full-length, Q94AM1 C29A (protein)
chain: MLMATPTSRASLNLLRRSPKPKYFSSSSAHFRPSTFRKSYPCPIWSSSFSFCLPPPRSTTSTSLSSSSFRPFSSPPSMSSAAAAAVESVVSDETLSSNPLLQDFDFPPFDSVDASHVRPGIRALLQHLEAELEELEKSVEPTWPKLVEPLEKIVDRLTVVWGMINHLKAVKDTPELRAAIEDVQPEKVKFQLRLGQSKPIYNAFKAIRESPDWSSLSEARQRLVEAQIKEAVLIGIALDDEKREEFNKIEQELEKLSHKFSENVLDATKKFEKLITDKKEIEGLPPSALGLFAQAAVSKGHENATAENGPWIITLDAPSYLPVMQHAKNRALREEVYRAYLSRASSGDLDNTAIIDQILKLRLEKAKLLGYNNYAEVSMAMKMATVEKAAELLEKLRSASWDAAVQDMEDLKSFAKNQGAAESDSMTHWDTTFWSERLRESKYDINEEELRPYFSLPKVMDGLFSLAKTLFGIDIEPADGLAPVWNNDVRFYRVKDSSGNPIAYFYFDPYSRPSEKRGGAWMDEVVSRSRVMAQKGSSVRLPVAHMVCNQTPPVGDKPSLMTFREVETVFHEFGHALQHMLTKQDEGLVAGIRNIEWDAVELPSQFMENWCYHRDTLMSIAKHYETGETLPEEVYKKLLAARTFRAGSFSLRQLKFASVDLELHTKYVPGGPESIYDVDQRVSVKTQVIPPLPEDRFLCSFSHIFAGGYAAGYYSYKWAEVLSADAFSAFEDAGLDDIKAVKETGQRFRNTILALGGGKAPLKVFVEFRGREPSPEPLLRHNGLLAASASA
B3: in the data set with TOP1^C29A, Q94AM1, the other: percent dimer was found to be 2.5%.
